In patent publication US20140011732A1:

Biological target: human serum albumin (HSA) (human) (UniProt P02768)
Assay: competition SPA on biotinylated HSA, 125I acylated GLP-1 tracer

N-epsilon37-[2-(2-[2-(2-[2-(2-((R)-3-[1-(17-Carboxyheptadecanoyl)piperidin-4-ylcarbonylamino]3-carboxypropionylamino)ethoxy)ethoxy]acetylamino)ethoxy]ethoxy)acetyl][DesaminoHis7, Glu22 Arg26, Arg 34,, sequence (peptide): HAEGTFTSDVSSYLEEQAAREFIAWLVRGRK

Work on “N-epsilon37-[2-(2-[2-(2-[2-(2-((R)-3-[1-(17-Carboxyheptadecanoyl)piperidin-4-ylcarbonylamino]3-carboxypropionylamino)ethoxy)ethoxy]acetylamino)ethoxy]ethoxy)acetyl][DesaminoHis7, Glu22 Arg26, Arg 34, Phe(m-CF3)28]GLP-1-(7-37)amide (peptide)” yielded an EC50 of 800 nM.
